The text below walks through data of patent US20220204569.

Data set [1] relates to TAL-HT x2 GFP fusion (Xanthomonas (engineered)). To be noted: FRAP T1/2 2.91 ± 0.22 s (n = 5), live HeLa; nuclear CV 0.40, uniform localization as control.
The test system of data set [2] is TAL-HT x1 GFP fusion (Xanthomonas (engineered)). Conditions: FRAP T1/2 2.09 ± 0.40 s (n = 5), live HeLa; nuclear CV 0.45, uniform localization as control.
The test system of data set [3] is GFP fusion, 0 TAL-repeats (control) (Xanthomonas (engineered)). Conditions: FRAP T1/2 1.87 ± 0.28 s (n = 3), live HeLa; nuclear CV 0.53.
The test system of data set [4] is TAL-HT x8 GFP fusion (Xanthomonas (engineered)). To be noted: FRAP T1/2 30.97 ± 6.79 s (n = 5), live HeLa; nuclear CV 0.87.
For data set [5], the system named is ChrocodiLE (TAL-HT x15 GFP fusion) (Xanthomonas (engineered)). Conditions: FRAP T1/2 68.53 ± 8.45 s (n = 4), live HeLa; nuclear CV 1.1.
Data set [6] relates to TAL-HT x3 GFP fusion (Xanthomonas (engineered)). To be noted: FRAP T1/2 6.30 ± 1.86 s (n = 5), live HeLa; nuclear CV 1.2.
Data set [7] concerns TAL-HT x12 GFP fusion (Xanthomonas (engineered)). Conditions: FRAP T1/2 67.84 ± 8.43 s (n = 4), live HeLa; nuclear CV 1.1.

For HeLa nuclear genomic DNA (chromatin), the FRAP recovery half-time came to 2.91 s in data set [1]; 2.09 s in data set [2]; 1.87 s in data set [3]; 31 s in data set [4]; 68.5 s in data set [5]; 6.3 s in data set [6]. Also, the FRAP recovery half-time in data set [7] was 67.8 s.
